Measurements: US9394352B2, “Immunogenic POTE peptides and methods of use” (The United States of America, as represented by the …, priority 2010, dated 2016)
“Also recorded” adds a separate entry of the source.

Tests used:
HLA-A2 molecule = target: T1, HLA-A2 molecule (Homo sapiens, UniProt P04439, D140Y/D185E/D98H/E176V/E277Q/G131W/G231S/I119V/I121R/I166T/I218V/L300P/L318F/N151K/N90K/P208A/P217A/Q86G/Q94H/R138H/R169H/T345S); assay: T2 binding assay (HLA-A2 up-regulation on TAP-deficient T2 cells); settings: for FI0.5: peptide concentration that increases HLA-A2.1 expression by 50% over no peptide; for binding affinity for the HLA-A2 molecule (in words): T2 binding assay
T1 construct: The T2 cell line is deficient for TAP1 and TAP2 transporter proteins and expresses low levels of HLA-A2; endogenous in cells; host or cells: T2 cell line (TAP1/TAP2-deficient)
Method: FIG. 1 is a graph showing binding affinity of POTE peptides to HLA-A2 molecules. Peptides were dissolved in DMSO in double-distilled water and different concentrations of peptides were added into the culture of TAP-deficient T2 cells. After overnight culture of the cells in medium supplemented with β2-microglobulin, cells were stained with anti-HLA-A2. HLA-A2 expression was quantified as fluorescence index (FI) according to the following formula: FI=[(mean fluorescence intensity with peptide−mean fluorescence intensity without peptide)/mean fluorescence intensity without peptide]. Background fluorescence without BB7.2 was subtracted for each individual value. To compare the different peptides, FI0.5 (the peptide concentration that increases HLA-A2.1 expression by 50% over no peptide control background) was calculated from the titration curve for each peptide.
FIGS. 2A-2C are graphs showing binding affinity of substituted POTE peptides to HLA-A2 molecules. Shown are binding affinities of the substituted POTE 252 peptides (FIG. 2A), the substituted POTE 553 peptides (FIG. 2B) and the substituted POTE 323 peptides (FIG. 2C) to HLA-A2 molecules. Different concentrations of peptides were added into the culture of TAP-deficient T2 cells. After overnight culture of the cells in medium supplemented with β2-microglobulin, cells were stained with anti-HLA-A2 antibody.
Peptide binding capacity to the HLA-A2 molecule was measured by using the T2 cell line according to a protocol described previously (Peters et al., Bioinformatics 19(14):1765-1772, 2003). T2 cells (3×10^5 cells/well) were incubated overnight in 96-well plates with culture medium (1:1 mixture of RPMI 1640/Eagle-Hank's amino acid containing 2.5% fetal bovine serum, 100 U/ml penicillin, and 100 μg/ml streptomycin) with 10 μg/ml β2-microglobulin (Sigma) and different titrated concentrations of peptides (starting from 100 μM with 2-fold serial dilution) as shown in the figures to determine the concentration giving a 50% increasing in binding. Cells were washed once with cold HBSS containing 0.1% BSA and incubated for 30 minutes at 4° C. with anti-HLA-A2.1 BB7.2 monoclonal antibody (1:40 dilution from hybridoma supernatant). After washing, cells were stained with FITC-labeled goat anti-mouse immunoglobulin (BD, San Jose, Calif.), and the level of HLA expression was measured by flow cytometry. HLA-A2 expression was quantified as fluorescence index (FI) according to the following formula: FI=[(geometric mean fluorescence intensity with peptide-geometric mean fluorescence intensity without peptide)/geometric mean fluorescence intensity without peptide]. Background fluorescence without BB7.2 was subtracted for each individual value. To compare the different peptides, FI0.5, the peptide concentration that increases HLA-A2.1 expression by 50% over no peptide control background, was calculated from the titration curve for each peptide.

[1] = tested on: IFN-γ secreting spleen cells; assay: ex vivo IFN-γ ELISPOT assay on splenocytes of peptide-immunized AAD mice; assay type: in vivo; settings: for IFN-γ response (ELISPOT spots) on stimulation with the immunizing peptide: AAD mice immunized s.c., splenocytes pooled from three mice two weeks after boost
Method: (§1) FIGS. 3A and 3B are graphs showing immunogenicity of the wild type and enhanced POTE 252 epitopes in AAD mice. AAD mice were immunized subcutaneously with a mixture of peptide and cytokines in adjuvant as described in Example 1. (FIG. 3A) Two weeks after the second boost, splenocytes pooled from three mice were restimulated with splenocytes of naïve AAD mice pulsed with 1.0 μM of each peptide at different effector to target (E/T) ratios. Cells were cultured in anti-mouse IFN-γ antibody coated ELISPOT™ plates. After overnight culture, biotinylated anti-mouse IFN-γ antibodies were added to each well. ELISPOT™ substrates were added to develop the color and spots were counted by an ELISPOT™ reader (AID ELISPOT™ reader system). Figures show numbers of spots per million cells. (FIG. 3B) CTL cross-reactivity on each peptide. Two weeks after the second boost, pooled spleen cells from three mice were restimulated with irradiated splenocytes pulsed with 1.0 μM of peptide for 7 days. In a 4-hour ^51Cr release assay, CIR.AAD cells were pulsed with 1.0 μM of peptide and labeled with ^51Cr. After washing three times, target cells were mixed with different numbers of effector cells and then cultured for 4 hours before harvesting.
(§2) FIGS. 4A-4D are graphs showing immunogenicity of the wild type and enhanced POTE 553 epitopes in AAD mice. AAD mice were immunized subcutaneously with a mixture of peptide and cytokines in adjuvant. (FIGS. 4A and 4B) Two weeks after the second boost, splenocytes pooled from three mice were restimulated with splenocytes of naïve AAD mice pulsed with 10 nM to 1.0 μM of each peptide at different E/T ratios. Cells were cultured in anti-mouse IFN-γ antibody coated ELISPOT™ plates. After overnight culture, biotinylated anti-mouse IFN-γ antibodies were added to each well. ELISPOT™ substrates were added to develop color and spots were counted by an ELISPOT™ reader (AID ELISPOT™ reader system). Figures show numbers of spots per million cells. (FIGS. 4C and 4D) CTL cross-reactivity on each peptide. Two weeks after the second boost, pooled spleen cells from three mice were restimulated with irradiated splenocytes pulsed with 1.0 μM of peptide for 7 days. In a 4-hour ^51Cr release assay, CIR.AAD cells were pulsed with 1.0 μM of peptide and labeled with ^51Cr. After washing three times, target cells were mixed with different numbers of effector cells and then cultured for 4 hours before harvesting.
(§3) FIGS. 5A and 5B are graphs showing immunogenicity of the POTE 272 epitope in AAD mice. AAD mice were immunized subcutaneously with a mixture of peptide and cytokines in adjuvant. (FIG. 5A) Two weeks after the second boost, splenocytes pooled from three mice were restimulated with splenocytes of naïve AAD mice pulsed with 1.0 μM POTE 272 peptide at different E/T ratios. Cells were cultured in anti-mouse IFN-γ antibody coated ELISPOT™ plates. After overnight culture, biotinylated anti-mouse IFN-γ antibodies were added in each well. ELISPOT™ substrates were added to develop color and spots were counted by an ELISPOT™ reader (AID ELISPOT™ reader system). Figures show numbers of spots per million cells. (FIG. 5B) CTL reactivity on POTE 272 peptide. Two weeks after the second boost, pooled spleen cells from three mice were restimulated with irradiated splenocytes pulsed with 1.0 μM POTE 272 peptide for 7 days. In a 4-hour ^51Cr release assay, CIR.AAD cells were pulsed with 1.0 μM POTE 272 peptide and labeled with ^51Cr. After washing three times, target cells were mixed with different numbers of effector cells and then cultured for 4 hours before harvesting.
(§4) FIGS. 6A and 6B are graphs showing immunogenicity of the wild type and enhanced POTE 323 epitopes in AAD mice. AAD mice were immunized subcutaneously with a mixture of peptide and cytokines in adjuvant. (FIG. 6A) Two weeks after the second boost, splenocytes pooled from three mice were restimulated with splenocytes of naïve AAD mice pulsed with 1.0 μM of each peptide at different E/T ratios. […]

[2] = tested on: C1R.AAD cells pulsed with peptide; assay: 4-hour 51Cr release CTL assay after one week in vitro stimulation; assay type: cell-based, human; settings: CTLs from immunized AAD mice, restimulated 7 days with 1.0 μM peptide; targets pulsed with 1.0 μM peptide
Method: as §1, §2, §3, §4

[3] = substituted peptides and their wild types, Table 2 / FIGS. 2A-2C
[4] = wild-type peptides, Table 1 / FIG. 1

Row | FI0.5 (HLA-A2 molecule; [3]) [µM] | Sequence | IFN-γ response (ELISPOT spots) on stimulation with the immunizing peptide [1] | CTL lysis of peptide-pulsed target cells [2] | further results
1 | 2.78 | LLLEQNADV [POTE 323-7A, modified POTE 323 peptide, alanine at position 7] |  |  | 
2 |  | VLMLLEHGA [POTE 222-230] |  |  | binding affinity for the HLA-A2 molecule (in words) (HLA-A2 molecule): weak binder; FI0.5 (HLA-A2 molecule; [4]): approximately 42.4 μM
3 | 2.6 | KILEEIESV [POTE 553-561, unmodified 9-mer peptide, residues 553-561 of human POTE] | did not induce any significant IFN-γ responses | not any significant detectable target cell lysis | binding affinity for the HLA-A2 molecule (in words) (HLA-A2 molecule): strongest HLA-A2 binding affinity; also recorded: intermediate binders; FI0.5 (HLA-A2 molecule; [4]): ~5.6 µM
4 |  | GLTPLLLGV [POTE 272-280, unmodified 9-mer peptide, residues 272-280 of human POTE] | induced significant IFN-γ responses | lysed target cells pulsed with POTE 272 | binding affinity for the HLA-A2 molecule (in words) (HLA-A2 molecule): strongest HLA-A2 binding affinity; FI0.5 (HLA-A2 molecule; [4]): ~0.9 µM
5 | 4 | KLMAKAALL [POTE 252-7A, modified POTE 252 peptide, alanine at position 7] |  |  | 
6 | 0.3 | LLLEQNVDV [POTE 323-331, unmodified 9-mer peptide, residues 323-331 of human POTE] | induced some IFN-γ responses after stimulation with the identical peptide | did not lyse target cells pulsed with POTE 323 | binding affinity for the HLA-A2 molecule (in words) (HLA-A2 molecule): intermediate binders; also recorded: strongest binding affinity; FI0.5 (HLA-A2 molecule; [4]): ~0.8 µM; IFN-γ response over background level ([1]; AAD mice, ELISPOT): less than 2 fold
7 | 0.2 | KILEEIASV [POTE-553-7A, modified POTE 553 peptide, alanine at position 7] |  |  | 
8 | 16.9 | KLAAKALLL [POTE 252-3A, modified POTE 252 peptide, alanine at position 3] |  |  | 
9 | 0.25 | YLLEQNVDV [POTE 323-1Y, modified POTE 323 peptide, tyrosine at position 1] |  |  | 
10 | 1.5 | KLFAKALLL [POTE 252-3F, modified POTE 252 peptide, phenylalanine at position 3] |  |  | 
11 | 0.4 | LLAEQNVDV [POTE 323-3A, modified POTE 323 peptide, alanine at position 3] |  |  | 
12 | 0.1 | KLLEEIESV [POTE 553-2L, modified POTE 553 peptide, leucine at position 2] | induced some extent of IFN-γ responses only after stimulation with the same peptide | did not lyse target cells pulsed with POTE 553-2L | IFN-γ ELISPOT cross-reactive response to the wild type peptide ([1]; AAD mice immunized s.c. with the enhanced peptide): no cross-reactive response to wild type peptide was detected
13 | 0.3 | KIFEEIESV [POTE 553-3F, modified POTE 553 peptide, phenylalanine at position 3] |  |  | 
14 | 0.9 | YLMAKALLL [POTE 252-1Y, modified POTE 252 peptide, tyrosine at position 1] | no significant IFN-γ responses were detected | not detectable | 
